Source: EP4613859A1, “TLR SIGNALING INHIBITORY PEPTIDE AND COMPOSITION INCLUDING SAME FOR PREVENTION OR TREATMENT OF INFLAMMATORY DISEASES” (Korea Institute of Science and Technology, priority 2022, dated 2025)

Each binder was assayed against human MyD88 (human) (UniProt Q99836) (assay: P8 phage display panning on plate-immobilised MyD88, after round 4, NGS).
Chain of UniProt Q99836 (Q99836 155-296 limits assumed): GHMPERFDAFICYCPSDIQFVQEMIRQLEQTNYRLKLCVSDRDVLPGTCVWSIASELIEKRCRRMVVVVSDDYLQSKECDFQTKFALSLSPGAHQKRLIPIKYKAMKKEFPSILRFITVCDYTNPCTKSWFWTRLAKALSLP
In the case of DPQDLDWFYERLVSLF, the NGS count is reported as 54800 count and the Population is reported as 21.1%. LGYHWIDWEYFVGIED showed an NGS count of 25200 count and a Population of 9.72%. Binder DWVWDYLLPNLEGPAG has an NGS count of 19400 count and a Population of 7.47%. WALDELLQILHARELF was tested, and the NGS count was 14400 count and the Population was 5.55%. Binder DPQDLDWFYERLVSLL has an NGS count of 13100 count and a Population of 5.06%. PQDLEWFYERLVSLIL gave an NGS count of 10600 count and a Population of 4.07%. Binder WALDELLKILYANETM has an NGS count of 10500 count and a Population of 4.05%. Binder DSLFWDRLLYSLHVTE has an NGS count of 7590 count and a Population of 2.92%. WDFASNMEQFWDRLYY showed an NGS count of 7350 count and a Population of 2.83%. Binder YLLLSVFQTIFARRTE has an NGS count of 7160 count and a Population of 2.76%. With YASYDDNDYYWVTHVLLRHL the NGS count was 5890 count and the Population was 2.66%. In the case of DPQDLQWFYERLVSLI, the NGS count is reported as 5730 count and the Population is reported as 2.21%. For SAAYDDFWDRLIRMIE, the NGS count was 5340 count and the Population was 2.06%. VQWDDPWFWDKLAYAM was tested, and the NGS count was 4900 count and the Population was 1.89%. Work on DPQDLEWFYERLFSQM yielded an NGS count of 4490 count and a Population of 1.73%.

Each binder was assayed against human MAL (human) (UniProt P58753) (assay: P3 phage display panning on plate-immobilised MAL, after round 4, NGS).
Chain of UniProt P58753 (P58753 79-221 limits assumed): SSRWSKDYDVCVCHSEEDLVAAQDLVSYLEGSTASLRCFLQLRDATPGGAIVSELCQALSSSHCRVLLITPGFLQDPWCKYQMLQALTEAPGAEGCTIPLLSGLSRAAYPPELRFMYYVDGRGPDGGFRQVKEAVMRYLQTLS
In the case of RLLKWKEALHQFHSWV, the NGS count is reported as 14900 count and the Population is reported as 5.61%. With DWFLSKLSQHILKREK the NGS count was 4580 count and the Population was 1.72%. In the case of KMQKWKDALYEAANLS, the NGS count is reported as 4430 count and the Population is reported as 1.66%. SLRKNLVSNLIEEFKR showed an NGS count of 3570 count and a Population of 1.34%. Work on HHKGSYGEALAEHEKR yielded an NGS count of 3060 count and a Population of 1.15%. With FLNFRGLDVRNYFLGH the NGS count was 2860 count and the Population was 1.07%. Binder KWFWDKLIYALSRNPH has an NGS count of 2800 count and a Population of 1.05%. Binder SFFWNKLRYHLPAPQH has an NGS count of 2300 count and a Population of 0.86%. In the case of LQNQWKLALTKVANLV, the NGS count is reported as 2280 count and the Population is reported as 0.86%.
